Data published in patent publication US20130004416A1 (published 2013).

T1: human IL-12 (human, UniProt P29459 23-219; P29460 23-328)
T1 construct: ABT874 is said to be against human IL-12p40; also called hIL-12
T1 sequence (looked up) 1: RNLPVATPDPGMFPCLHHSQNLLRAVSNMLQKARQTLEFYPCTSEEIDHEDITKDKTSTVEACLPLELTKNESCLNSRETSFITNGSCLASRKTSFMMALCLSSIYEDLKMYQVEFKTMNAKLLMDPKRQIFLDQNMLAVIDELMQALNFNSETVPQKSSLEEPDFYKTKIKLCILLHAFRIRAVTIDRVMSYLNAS
T1 sequence (looked up) 2: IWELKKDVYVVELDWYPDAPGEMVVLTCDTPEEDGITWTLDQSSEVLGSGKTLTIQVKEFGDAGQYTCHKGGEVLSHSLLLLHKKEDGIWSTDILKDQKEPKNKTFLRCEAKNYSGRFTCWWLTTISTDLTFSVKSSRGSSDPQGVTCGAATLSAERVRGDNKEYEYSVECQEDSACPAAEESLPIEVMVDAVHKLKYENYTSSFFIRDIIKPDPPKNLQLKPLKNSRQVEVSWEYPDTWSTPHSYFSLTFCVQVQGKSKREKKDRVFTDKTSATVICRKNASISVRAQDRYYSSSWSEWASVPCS

B1: DVD1812SL (DVD1812HC-SL / DVD1812LC-SL) (bispecific antibody)
chain 1: not shown
chain 2: EIVMTQSPATLSVSPGERATLSCRASESISSNLAWYQQKPGQAPRLFIYTASTRATDIPARFSGSGSGTEFTLTISSLQSEDFAVYYCQQYNNWPSITFGQGTRLEIKRTVAAPQSVLTQPPSVSGAPGQRVTISCSGSRSNIGSNTVKWYQQLPGTAPKLLIYYNDQRPSGVPDRFSGSKSGTSASLAITGLQAEDEADYYCQSYDRYTHPALLFGTGTKVTVLGTVAAPSVFIFPPSDEQLKSGTASVVCLLNNFYPREAKVQWKVDNALQSGNSQESVTEQDSKDSTYSLSSTLTLSKADYEKHKVYACEVTHQGLSSPVTKSFNRGEC
B2: DVD1812LL (DVD1812HC-LL / DVD1812LC-LL) (bispecific antibody)
heavy: not shown
light: EIVMTQSPATLSVSPGERATLSCRASESISSNLAWYQQKPGQAPRLFIYTASTRATDIPARFSGSGSGTEFTLTISSLQSEDFAVYYCQQYNNWPSITFGQGTRLEIKRTVAAPSVFIFPPQSVLTQPPSVSGAPGQRVTISCSGSRSNIGSNTVKWYQQLPGTAPKLLIYYNDQRPSGVPDRFSGSKSGTSASLAITGLQAEDEADYYCQSYDRYTHPALLFGTGTKVTVLG

Legend:
human IL-18 [1] = target: T2, human IL-18 (human, UniProt Q14116 37-193); assay: SPR (Biacore)
T2 construct: also called hIL-18

human IL-12 [2] = target: T1, human IL-12; assay: SPR (Biacore)
human IL-18 [3] = target: T2, human IL-18; assay: cell-based or functional assay
human IL-12 [4] = target: T1, human IL-12; assay: cell-based or functional assay

Binder	Kd (human IL-18 [1])	Kd (human IL-12 [2])	Potency (IC50, M), KG-1 bioassay (human IL-18 [3])	Potency (IC50, M), IL-12-induced IFN-γ production by PHA blast cells (human IL-12 [4])
B1	0.191 nM	1.82 nM	4e-11 M	3.66e-10 M
B2	0.162 nM	0.113 nM	7.8e-11 M	1.18e-10 M
